Experimental data: patent US10407638B2, “Production of alpha-olefins” (TOTAL RAFFINAGE CHIMIE, priority 2015, dated 2019)

Columns and labels:
Type in all cases: biochemical
[1] = In vitro olefin biosynthesis assay with supernatant of E. coli lysates expressing the enzyme, GC/MS; details: for fatty acid decarboxylase activity (α-olefin production): C12, C14 or C16 fatty acid substrate (1 mM), H2O2 500 μM
Description: FIG. 4: In vitro production of α-olefins by OleTJE, Bs168, Aa162 and Sm46. Genes encoding OleTJ, Bs168, Aa162 and Sm46 were recombinantly expressed in E. coli. The supernatant of the E. coli lysates was used in an in vitro assay for α-olefin biosynthesis in the presence of C12, C14 or C16 fatty acid substrate (1 mM) and H2O2 (500 μM). C11, C13 and C15 α-olefin production by the different enzymes is indicated as the area under the gas chromatographic (GC) peak.
E. coli BL21(DE3) cells (Novagen) carrying a recombinant plasmid or an empty PET28a plasmid (control) were cultured for several cycles to ensure best growth state at 37° C. in 10 mL LB medium supplemented with 50 μg/ml of kanamycin, followed by inoculation (1:100 ratio) into 50 mL fresh Terrific Broth medium containing 50 μg/ml of kanamycin, 1 mM thiamine, 10% glycerol and a rare salt solution (6750 mg/l FeCl3, 500 mg/l ZnCl2, 500 mg/l CoCl2, 500 mg/l Na2MoO4, 250 mg/l CaCl2, 465 mg/l CuSO4, and 125 mg/l H31303) at 37° C. Cells were grown at 37° C. for 3 to 4 h until the optical density at 600 nm (OD600) reached 0.6 to 0.8, at which 0.2 or 0.4 mM isopropyl-β-D-thiogalactopyranoside (IPTG) and 0.5 mM 5-aminolevulinic acid were added, followed by 18 h of cultivation at 16° C.
Then, the cell cultures were recovered by centrifugation (at 4° C.) and re-suspended in 1.5 mL 50 mM Tris buffer, pH 7.5, containing 0.1 M NaCl. The re-suspended cell cultures were disrupted by sonication and centrifuged at 13,000×g for 30 min (4° C.). The supernatant was collected and the pellet was re-suspended in 1.5 mL 50 mM Tris buffer, pH 7.5, containing 0.1 M NaCl for further analysis. An SDS gel was run to check the expression of the genes using 15 μL of supernatant or pellet solution mixed with 5 μL of 4× loading buffer (FIG. 3).
In vitro olefin biosynthesis was evaluated by adding to the supernatant a fatty acid substrate in DMSO to a final concentration of 0.2 mM (1:100 dilution) or 1 mM (1:10 dilution), and 500 μM H2O2. The reaction mixture was incubated at 28° C. for 2-3 h, or stopped using 50 μL of 10 M HCl at t=0, 15, 30, 60 and 120 min for a dynamic test. Then, C16 fatty acid was added at a final concentration of 0.2 mM (1:100 dilution) as an internal standard. 300 μL reaction mixture of each reaction condition was extracted with equal volume of ethyl acetate, and the organic phase was analyzed for hydrocarbons by gas chromatography/mass spectrometry (GC/MS). In the meanwhile, undecene of different concentrations (0, 0.05 mM, 0.1 mM, 0.2 mM and 0.5 mM) were tested to produce a standard curve.

[2] = Fatty acid decarboxylation assay with purified Sm46-del29, GC
Description: FIG. 6: In vitro conversion of free fatty acids into α-olefins by a truncated variant of Sm46: Sm46-del29. Conversion percentages of the free fatty acid substrates (A) and the corresponding α-alkene products (B) are shown.
The fatty acid decarboxylation assays containing 1.0 μM Sm46-del29, 200 μM fatty acid substrate (from C8 to C20), 220 μM H2O2 in 200 μl of storage buffer were carried out at 28° C. for 2 h. Reactions were quenched by the addition of 20 μl of 10 M HCl. Heptadecanoic acid was added as internal standard and the mixture was extracted by 200 μl ethyl acetate. Following extraction, the organic phase was collected and analyzed by gas chromatography as described below.
The GC analytical method for hydrocarbon and fatty acid samples was adapted from Guan et al. (2011 J Chromatogr A 1218:8289-8293). The analyses were performed on an Agilent 7890B gas chromatograph equipped with a capillary column HP-INNOWAX (Agilent Technologies, Santa Clara, Calif., USA; cross-linked polyethylene glycerol, i.d. 0.25 μm film thickness, 30 m by 0.25 mm). The helium flow rate was set to 1 ml per minute. The oven temperature was controlled initially at 40° C. for 4 min, then increased at the rate of 10° C. per min to 250° C., and held for 5 min. The injecting temperature was set to 280° C. with the injection volume of 1 μl under splitless injection conditions. The response factors between fatty acids and alkenes were determined by analyzing known authentic fatty acids (C10-C20), 1-alkenes (C9-C19) and 1-heptadecanoic acid standards as described in Liu et al. (2014 Biotechnol. Biofuels 7:28).

[3] = Reaction of purified enzymes with C14 fatty acid, analysis of decarboxylation and hydroxylation products; details: compared with Bs168 and Aa162; FIG. 7
Description: FIG. 7: In vitro production of α-olefins by Aa162, Bs168 and Sm46-del29. Recombinantly expressed and purified enzyme (0.2 μM) was used in an in vitro assay for α-olefin biosynthesis in the presence of C14 fatty acid substrate. The conversion percentages are shown for, from left to right, C14 free fatty acid substrate, C13 α-olefin, α-hydroxy C14 fatty acid, β-hydroxy C14 fatty acid.
Recombinantly expressed and purified Bs168 and Aa162 from Example 1 and Sm46-del29 of Example 2 were reacted with C14 fatty acid and the products of decarboxylation (C13 α-olefin) and hydroxylation (α-OH—O14 fatty acid and β-OH—C14 fatty acid) reactions were analyzed.

[4] = C12, C14 or C16 fatty acid substrate, FIG. 4

B1: OleTJE: P450 decarboxylase from Jeotgalicoccus sp. ATCC 8456, decarboxylates C12 to C20 free fatty acids to α-olefins (protein, listed as Jeotgalicoccus sp.)
chain: MATLKRDKGLDNTLKVLKQGYLYTTNQRNRLNTSVFQTKALGGKPFVVVTGKEGAEMFYNNDVVQREGMLPKRIVNTLFGKGAIHTVDGKKHVDRKALFMSLMTEGNLNYVRELTRTLWHANTQRMESMDEVNIYRESIVLLTKVGTRWAGVQAPPEDIERIATDMDIMIDSFRALGGAFKGYKASKEARRRVEDWLEEQIIETRKGNIHPPEGTALYEFAHWEDYLGNPMDSRTCAIDLMNTFRPLIAINRFVSFGLHAMNENPITREKIKSEPDYAYKFAQEVRRYYPFVPFLPGKAKVDIDFQGVTIPAGVGLALDVYGTTHDESLWDDPNEFRPERFETWDGSPFDLIPQGGGDYWTNHRCAGEWITVIIMEETMKYFAEKITYDVPEQDLEVDLNSIPGYVKSGFVIKNVREVVDRT
Q: With B1 as the molecule, how does the “fatty acid decarboxylase activity (α-olefin production)” value ([1]; FIG. 4) read?
A: Its value is “fatty acid decarboxylase activity”.

B2: Sm46-del29: truncated variant of Sm46 with the N-terminal 29 amino acids deleted, SEQ ID NO:13 (protein)
chain: AKKLPKVKGLDNTVDIIKGGYTYVPGKLEEFDSKAFEVRALGGKKIAVMSGKEAAEIFYDNEKMERQGTLPKRIVNTLFGKGAIHTTAGKKHVDRKALFMSLMTDENLNYLRELTRNYWFMNTERMQSMDKVNVYNESIYMLTKIGFRWAGIIQTPEEAEQNAKDMDTMINSFVSLGSAYKGYKKAKKARKRVEDFLEKQIIDVRKGKLHPEEGTALYEFAHWEDLNDNPMDSHLCAVDLMNVVRPLAAINRFISYGVKVLIEFDQEKEKLRLENNEDYAYKFAQEVRRIFPFVPYLPGRAAVDLEYDGYKIPAGMMTALDVYGTTHDEDLWENPDQFNPNRFDNWDGSPFDLIPQGGGDFYTNHRCAGEWITVIIMEETMKYFANKIEFDVPSQDLSVKLDKLPGNVTSGTIISNVRPRVARK
modifications: Sm46-del29
Q: For B2, which decarboxylase activity ([2]; 1.0 μM enzyme, 200 μM fatty acid, 220 μM H2O2, 28° C., 2 h, FIG. 6) is on record?
A: Its decarboxylase activity is “had decarboxylase activity”.

Q: What about the “decarboxylation of C10 free fatty acid” value ([2]; C9 α-olefin not detected due to volatility) of the same molecule?
A: The value was “able to decarboxylate C10 free fatty acid”.

Q: What about the “substrate preference for α-olefin production” value ([2]; among tested fatty acid substrates C8 to C20, FIG. 6) of the same molecule?
A: Its value is “substrate preference for C12 free fatty acid”.

Q: And the “formation of hydroxy fatty acids” value [3]?
A: The value was “formed less hydroxy fatty acids”.

B3: Bs168: P450BSβ fatty acid hydroxylase from Bacillus subtilis subsp. subtilis str. 168, SEQ ID NO:4 (protein, listed as Bacillus subtilis)
chain: MNEQIPHDKSLDNSLTLLKEGYLFIKNRTERYNSDLFQARLLGKNFICMTGAEAAKVFYDTDRFQRQNALPKRVQKSLFGVNAIQGMDGSAHIHRKMLFLSLMTPPHQKRLAELMTEEWKAAVTRWEKADEVVLFEEAKEILCRVACYWAGVPLKETEVKERADDFIDMVDAFGAVGPRHWKGRRARPRAEEWIEVMIEDARAGLLKTTSGTALHEMAFHTQEDGSQLDSRMAAIELINVLRPIVAISYFLVFSALALHEHPKYKEWLRSGNSREREMFVQEVRRYYPFGPFLGALVKKDFVWNNCEFKKGTSVLLDLYGTNHDPRLWDHPDEFRPERFAEREENLFDMIPQGGGHAEKGHRCPGEGITIEVMKASLDFLVHQIEYDVPEQSLHYSLARMPSLPESGFVMSGIRRKS
Q: For B3, which “fatty acid decarboxylase activity (α-olefin production)” value ([1]; FIG. 4) is on record?
A: The value was “fatty acid decarboxylase activity”.

Q: And the substrate preference [1, 4]?
A: Its substrate preference is “preference for C12 fatty acid substrate”.

B4: Sm46: olefin-producing enzyme from Staphilococcus massiliensis, SEQ ID NO:8 (protein, listed as Staphylococcus massiliensis)
chain: MFVDSILVLRLNLLKTGIQLEMKNGGIKVAKKLPKVKGLDNTVDIIKGGYTYVPGKLEEFDSKAFEVRALGGKKIAVMSGKEAAEIFYDNEKMERQGTLPKRIVNTLFGKGAIHTTAGKKHVDRKALFMSLMTDENLNYLRELTRNYWFMNTERMQSMDKVNVYNESIYMLTKIGFRWAGIIQTPEEAEQNAKDMDTMINSFVSLGSAYKGYKKAKKARKRVEDFLEKQIIDVRKGKLHPEEGTALYEFAHWEDLNDNPMDSHLCAVDLMNVVRPLAAINRFISYGVKVLIEFDQEKEKLRLENNEDYAYKFAQEVRRIFPFVPYLPGRAAVDLEYDGYKIPAGMMTALDVYGTTHDEDLWENPDQFNPNRFDNWDGSPFDLIPQGGGDFYTNHRCAGEWITVIIMEETMKYFANKIEFDVPSQDLSVKLDKLPGNVTSGTIISNVRPRVARK
Q: Which “fatty acid decarboxylase activity (α-olefin production)” value ([1]; FIG. 4) does the source give for B4 here?
A: Its value is “fatty acid decarboxylase activity”.

Q: What about the substrate preference ([1]; later experiments, data not shown) of the same molecule?
A: Its substrate preference is “substrate preference for C12 fatty acid substrate”.

B5: Aa162: decarboxylase (olefin-producing enzyme) from Alicyclobacillus acidocaldarius, SEQ ID NO:6 (protein, listed as Alicyclobacillus acidocaldarius)
chain: MNQCIPRDRTFDSSLALIKEGYLFIKNRVDQYQSDIFEARLLLENVVCMHGAEAAKLFYNTELFQRQGALPKRVQKTLFGENAIQTLDGTAHLHRKQLFLSLLTPDQEKSLATLATTQWRECAKVWENADRVVLFEEAKRMLCRIACQWTGVPLDESEVSKRADDFGAMVDAFGAVGPRHWKGRRARARAEAWLRQMIDEIRIGLRSVDEHTPLHVVAFWRDVNGNLLDAQMVAIELINLLRPIVAISTFITFSALALHEHPTWRDRLKARNEADIEMFVQEVRRYYPFAPFLGARVKKDFVWRGYEFKRGTLVLLDVYGTHHDARLWDSPNEFRPERFMRKTVGPFDLIPQGGGDSHTGHRCPGEGATIEIMKASVDFLVNQIDFEVPAQDLSYRLDVMPTLPKSGFVLTHVHRKFIASPTIATPNGSEALPSEV
Q: For B5, which “fatty acid decarboxylase activity (α-olefin production)” value ([1]; FIG. 4) is on record?
A: Its value is “fatty acid decarboxylase activity”.

Q: And the substrate preference [1, 4]?
A: The substrate preference was “preference for C12 fatty acid substrate”.
